We go through two substances from article PMC3658131.

The test addresses Bd-cys-S-fluorescein conjugate (Staphylococcus aureus). Description: ELISA.

Take “HRP-conjugated guinea pig IgG (antibody)”: the net absorbance at 405 nm (net absorbance (405 nm)) was 0.91.

In the case of HRP-conjugated rabbit IgG (antibody), the net absorbance at 405 nm (net absorbance (405 nm)) was 1.13.
